Key:
Conditions in all cases: both partners purified
[1] = molecular target: T1, HAstV8 capsid spike (Spike 8) fused to a 10x histidine tag (Human astrovirus 8 (HAstV-8), Q9IFX1, UniProt Q9IFX1); assay: BLI; His-tagged Spike 8 (0.5 ug/ml) loaded on Anti-Penta-His (HIS1K) biosensors; scFv as analyte in six 1:2 serial dilutions (from 80 nM scFv 3E8 or 20 nM scFv 2D9); PBS pH 7.4, 2% BSA, 0.09% Tween 20; 22 C; global 1:1 fit; mean of triplicate assays
T1 construct: HAstV serotype 8 capsid spike protein, amino acids 429 to 647 of the capsid protein (UniProtKB entry Q9IFX1); A thrombin cleavage site stands between the spike and the C-terminal 10-histidine tag (pET52b); Captured on Anti-Penta-His sensors by the tag; also called His-tagged Spike 8; HAstV serotype 8 capsid spike protein; not shown: His10, C-terminal, kept

[2] = molecular target: T2, HAstV8 capsid spike (Spike 8), purification tag removed by thrombin (human astrovirus serotype 8 (HAstV8), UniProt Q9IFX1); assay: SEC; 3 molar excess scFv 3E8 with Spike 8 overnight at 4 C, tags removed with thrombin; Superdex 200 in TBS pH 7.2; coeluted at apparent ~105 kDa against gel filtration standards; data not shown
T2 construct: HAstV serotype 8 capsid spike protein, amino acids 429 to 647 of the capsid protein (UniProtKB entry Q9IFX1); Same construct as m1 after thrombin digestion; residues of the thrombin site may remain at the C-terminus; source: tag removed with thrombin during complex formation; not shown: His10, C-terminal, cleaved

[3] = molecular target: T2, HAstV8 capsid spike (Spike 8), …; assay: SEC; 3.5 molar excess scFv 2D9 with Spike 8 overnight at 4 C, tags removed with thrombin; Superdex 200 in TBS pH 8.0; coeluted at apparent ~105 kDa against gel filtration standards; data not shown

T2 sequence (Q9IFX1 429-647): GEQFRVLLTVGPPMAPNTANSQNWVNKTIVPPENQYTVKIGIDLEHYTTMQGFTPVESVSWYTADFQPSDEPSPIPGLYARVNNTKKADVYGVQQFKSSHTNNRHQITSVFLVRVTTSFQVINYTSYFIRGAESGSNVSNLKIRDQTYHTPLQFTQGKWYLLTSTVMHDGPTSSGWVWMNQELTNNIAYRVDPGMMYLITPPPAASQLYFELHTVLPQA
T1 sequence (Q9IFX1 429-647, one chain of several): as the sequence (Q9IFX1 429-647) above

B1: scFv 3E8 (single-chain variable fragment of mouse monoclonal antibody 3E8) (scFv, V domains shown)
VH: DVQLQESGPGLVKPSQSLSLTCSVTGYSITSGYYWNWIRQFPGNKLEWMGYISYDGSNNYNPSLKNRISITRDTSKNQFFLKLNSVTTEDTATYYCATFYDGYDYWGQGTTLTVSS
VL: DIVMTQSHKFMSTSVGDRVSITCKASQDVSTAVAWYQQKPGQSPKLLIYWASTRHTGVPDRFTGSGSGTDYTLTISSVQAEDLALYYCQQHYSTPFTFGSGTKLEIK
notes: 3E8 kappa chain variable region; GGS(GGGGS)3 linker; 3E8 heavy chain variable region; A thrombin cleavage site stands between the scFv and the C-terminal Twin Strep-tag; source: CHO-S cells (electroporated), secreted, purified (StrepTrap HP)
Kd [1]: 40 nM

B2: scFv 3E8, purification tag removed by thrombin (scFv, V domains shown)
VH: DVQLQESGPGLVKPSQSLSLTCSVTGYSITSGYYWNWIRQFPGNKLEWMGYISYDGSNNYNPSLKNRISITRDTSKNQFFLKLNSVTTEDTATYYCATFYDGYDYWGQGTTLTVSS
VL: DIVMTQSHKFMSTSVGDRVSITCKASQDVSTAVAWYQQKPGQSPKLLIYWASTRHTGVPDRFTGSGSGTDYTLTISSVQAEDLALYYCQQHYSTPFTFGSGTKLEIK
notes: 3E8 kappa chain variable region, as in m3; GGS(GGGGS)3 linker; 3E8 heavy chain variable region, as in m3; Same construct as m3 after thrombin digestion; source: CHO-S cells (electroporated), secreted, purified (StrepTrap HP); tag removed with thrombin during complex formation; not shown: Twin Strep-tag, C-terminal, cleaved
stoichiometry N [2]: 1 scFv per Spike 8 protomer (2:2 complex)

B3: scFv 2D9 (single-chain variable fragment of mouse monoclonal antibody 2D9) (scFv, V domains shown)
VH: QVQLKQSGPGLVQPSQSLSITCTVSGFSLTSYGVHWVRQSPGKGLEWLGVIWSGGSTDYNAAFISRLSISKDNSKSQVFFKMNSLQANDTAIYYCARNSLLDAMDYWGQGTSVTVSS
VL: SIVMTQTPKFLLVSAGDRVTITCKASQSVSNAVAWYQQKPGQSPKLLIYYASNRYTGVPDRFTGSGYGTDFTFTISTVQAEDLAVYFCQQDYSSPLTFGAGTKLELK
notes: 2D9 kappa chain variable region; GGS(GGGGS)3 linker; 2D9 heavy chain variable region; A thrombin cleavage site stands between the scFv and the C-terminal Twin Strep-tag; source: D. melanogaster Schneider 2 (S2) cells, stably transfected, secreted, purified (StrepTrap HP)
Kd [1]: 0.00245 nM

B4: scFv 2D9, purification tag removed by thrombin (scFv, V domains shown)
VH: QVQLKQSGPGLVQPSQSLSITCTVSGFSLTSYGVHWVRQSPGKGLEWLGVIWSGGSTDYNAAFISRLSISKDNSKSQVFFKMNSLQANDTAIYYCARNSLLDAMDYWGQGTSVTVSS
VL: SIVMTQTPKFLLVSAGDRVTITCKASQSVSNAVAWYQQKPGQSPKLLIYYASNRYTGVPDRFTGSGYGTDFTFTISTVQAEDLAVYFCQQDYSSPLTFGAGTKLELK
notes: 2D9 kappa chain variable region, as in m5; GGS(GGGGS)3 linker; 2D9 heavy chain variable region, as in m5; Same construct as m5 after thrombin digestion; source: D. melanogaster Schneider 2 (S2) cells, stably transfected, secreted, purified (StrepTrap HP); tag removed with thrombin during complex formation; not shown: Twin Strep-tag, C-terminal, cleaved
stoichiometry N [3]: 1 scFv per Spike 8 protomer (2:2 complex)

From PMC8754201, “Structures of Two Human Astrovirus Capsid/Neutralizing Antibody Complexes Reveal Distinct Epitopes and Inhibition of Virus Attachment to Cells” (Journal of Virology, 2021)
